Residue numbers refer to the chain shown, from its start.

Results on 25 molecules are retold here after patent US20030171559A1 (Amgen, published 2003).

In the test the target is T1, G-CSF receptor (natural G-CSF receptor, found on hematopoietic cells) (mouse (bone marrow cells of Balb C …, UniProt P40223 26-837)).
T1 sequence (looked up): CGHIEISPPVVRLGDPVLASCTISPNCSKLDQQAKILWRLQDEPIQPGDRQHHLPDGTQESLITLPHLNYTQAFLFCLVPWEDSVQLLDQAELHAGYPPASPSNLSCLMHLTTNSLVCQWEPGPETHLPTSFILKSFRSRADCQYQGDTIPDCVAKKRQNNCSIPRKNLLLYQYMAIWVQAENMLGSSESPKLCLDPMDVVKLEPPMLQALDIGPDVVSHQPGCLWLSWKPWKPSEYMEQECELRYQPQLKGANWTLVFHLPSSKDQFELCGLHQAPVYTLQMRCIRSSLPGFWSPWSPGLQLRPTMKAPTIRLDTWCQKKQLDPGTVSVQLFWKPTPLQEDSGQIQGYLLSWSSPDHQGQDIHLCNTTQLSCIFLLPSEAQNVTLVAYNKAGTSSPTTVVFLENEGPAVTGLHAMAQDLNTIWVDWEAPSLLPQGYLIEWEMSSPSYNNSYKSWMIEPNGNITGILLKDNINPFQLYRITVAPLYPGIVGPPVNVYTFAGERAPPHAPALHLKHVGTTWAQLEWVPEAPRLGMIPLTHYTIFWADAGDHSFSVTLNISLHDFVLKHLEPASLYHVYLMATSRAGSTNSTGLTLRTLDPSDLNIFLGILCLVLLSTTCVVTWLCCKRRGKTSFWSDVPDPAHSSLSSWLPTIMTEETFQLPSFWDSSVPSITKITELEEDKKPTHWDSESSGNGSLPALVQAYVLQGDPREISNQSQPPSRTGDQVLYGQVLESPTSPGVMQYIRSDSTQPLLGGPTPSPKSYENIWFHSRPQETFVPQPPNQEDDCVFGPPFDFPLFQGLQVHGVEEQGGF
Description: cell-based or functional assay.

B1: G-CSF analog Gln26->Ala26 (ligand)
chain: MTPLGPASSLPQSFLLKCLEQVRKIAGDGAALQEKLCATYKLCHPEELVLLGHSLGIPWAPLSSCPSQALQLAGCLSQLHSGLFLYQGLLQALEGISPELGPTLDTLQLDVADFATTIWQQMEELGMAPALQPTQGAMPAFASAFQRRAGGVLVASHLQSFLEVSYRVLRHLAQP
In the case of B1, the “% Normal G-CSF Activity (3H-thymidine uptake, mouse bone marrow cells)” value (from here on “% Normal G-CSF Activity”) worked out at 51%.

B2: G-CSF analog Asp110->Ala110 (ligand)
chain: B1 chain with A26Q, D110A
For the molecule B2, the “% Normal G-CSF Activity” value turned out to be 29%.

B3: G-CSF analog His53->Ala53 (ligand)
chain: B1 chain with A26Q, H53A
As for B3, the “% Normal G-CSF Activity” value was found to be 8.3%.

B4: G-CSF analog Asp28->Ala28; Asp110->Ala110 (ligand)
chain: B1 chain with A26Q, D28A, D110A
B4: the “% Normal G-CSF Activity” value was determined as 20.6%.

B5: G-CSF analog Glu20->Ala20 (ligand)
chain: B1 chain with E20A, A26Q
Turning to B5, the “% Normal G-CSF Activity” value was 0%.

B6: G-CSF analog Lys24->Ala24 (ligand)
chain: B1 chain with K24A, A26Q
On to B6, for which the “% Normal G-CSF Activity” value was 0%.

B7: G-CSF analog Gln21->Ala21 (ligand)
chain: B1 chain with Q21A, A26Q
For the molecule B7, the “% Normal G-CSF Activity” value is 9.6%.

B8: G-CSF analog Phe114->Val114, Thr117->Ala117 (ligand)
chain: B1 chain with A26Q, F114V, T117A
B8: the “% Normal G-CSF Activity” value was 0%.

B9: G-CSF analog Lys41->Ala41 (ligand)
chain: B1 chain with A26Q, K41A
Take B9: the “% Normal G-CSF Activity” value is 81%.

B10: G-CSF analog Ser13->Ala13 (ligand)
chain: B1 chain with S13A, A26Q
For B10, the “% Normal G-CSF Activity” value was determined as 110%.

B11: G-CSF analog Arg167->Ala167 (ligand)
chain: B1 chain with A26Q, R167A
In the case of B11, the “% Normal G-CSF Activity” value came out at 110%.

B12: G-CSF analog Thr117->Ala117 (ligand)
chain: B1 chain with A26Q, T117A
B12: the “% Normal G-CSF Activity” value stood at 9.7%.

B13: G-CSF analog His44->Lys44 (ligand)
chain: B1 chain with A26Q, H44K
Turning to B13, the “% Normal G-CSF Activity” value was 70%.

B14: G-CSF analog Arg23->Ala23 (ligand)
chain: B1 chain with R23A, A26Q
Consider B14, for which the “% Normal G-CSF Activity” value was 31%.

B15: G-CSF analog Arg170->Ala170 (ligand)
chain: B1 chain with A26Q, R170A
For B15, the “% Normal G-CSF Activity” value was found to be 100%.

B16: G-CSF analog Met127,138->Leu127,138 (ligand)
chain: B1 chain with A26Q, M127L, M138L
With B16, the “% Normal G-CSF Activity” value worked out at 98%.

B17: G-CSF analog Gln121->Ala121 (ligand)
chain: B1 chain with A26Q, Q121A
For the molecule B17, the “% Normal G-CSF Activity” value is 100%.

B18: G-CSF analog Glu47->Ala47 (ligand)
chain: B1 chain with A26Q, E47A
For the molecule B18, the “% Normal G-CSF Activity” value was 0%.

B19: G-CSF analog Glu124->Ala124 (ligand)
chain: B1 chain with A26Q, E124A
As to B19, the “% Normal G-CSF Activity” value came out at 75%.

B20: G-CSF analog Glu20->Ala20; Ser13->Gly13 (ligand)
chain: B1 chain with S13G, E20A, A26Q
Regarding B20, the “% Normal G-CSF Activity” value is 0%.

B21: G-CSF analog His44->Ala44 (ligand)
chain: B1 chain with A26Q, H44A
Turning to B21, the “% Normal G-CSF Activity” value stood at 10.8%.

B22: G-CSF analog Gln174->Ala174 (ligand)
chain: B1 chain with A26Q, Q174A
B22: the “% Normal G-CSF Activity” value was determined as 100%.

B23: G-CSF analog Asp113->Ala113 (ligand)
chain: B1 chain with A26Q, D113A
Regarding B23, the “% Normal G-CSF Activity” value was determined as 0%.

B24: G-CSF analog Asp28->Ala28 (ligand)
chain: B1 chain with A26Q, D28A
Take B24: the “% Normal G-CSF Activity” value stood at 147%.

B25: G-CSF analog Lys17->Ala17 (ligand)
chain: B1 chain with K17A, A26Q
For the molecule B25, the “% Normal G-CSF Activity” value came out at 70%.
